Results as given in US20060222643A1 (Chugai, published 2006).
No end group written: not given here.

Key:
[1] = biological target: T1, GST fusion protein containing human Mpl MG3 (Gln26 to Ala189) (human, UniProt P40238 26-189); assay: Western blotting of GST fusion protein
T1 construct: As MG1; not shown: glutathione-S-transferase of vector pGEX-4T-3 (Amersham Biosciences)
T1 sequence: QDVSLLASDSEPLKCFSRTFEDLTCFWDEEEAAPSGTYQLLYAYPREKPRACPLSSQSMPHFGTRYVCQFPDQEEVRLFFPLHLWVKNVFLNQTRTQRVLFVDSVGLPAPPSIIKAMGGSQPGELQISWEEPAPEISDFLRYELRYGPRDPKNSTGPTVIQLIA
Protocol: (§1) Since the anti-human Mpl antibody VB22B can be used for Western blotting, a GST-fusion protein containing a partial sequence of human Mpl was constructed for VB22B epitope analysis. MG1 (Gln26 to Trp491) and MG2 (Gln26 to Leu274) regions were each amplified by PCR, and cloned into pGEX-4T-3 (Amersham Biosciences) to be expressed as GST fusion proteins. The resulting plasmid DNAs were transformed into DH5α to give transformants. A final concentration of 1 mM IPTG was added to the transformants in their logarithmic growth phase to induce the expression of GST fusion proteins. The bacterial cells were harvested after two hours of incubation. The cells were lysed by sonication. The lysates were centrifuged in XL-80 Ultracentrifuge (Beckman, Rotor 70.1Ti) at 35,000 rpm for 30 min. The culture supernatants were removed, and then the fusion proteins were purified using GST Purification Modules (Amersham Biosciences). The samples were separated by 10%-SDS-PAGE, and then transferred onto a PVDF membrane. The membrane was analyzed by the murine antibody VB22B in Western Btotting.
(§2) Then, GST fusion proteins containing the respective regions of human Mpl: MG3 (Gln26 to Ala189), MG4 (Gln26 to Pro106), MG5 (Gln26 to Glu259), and MG6 (Gln26 to Gly245) were prepared and analyzed by Western blotting using the same procedure described above. […] In addition, GST was fused with MG7 (Gln26 to Ala231) and MG8 (Gln26 to Pro217) to prepare GST fusion proteins.

[2] = biological target: T2, GST fusion protein containing human Mpl MG4 (Gln26 to Pro106) (human, UniProt P40238 26-106); assay: Western blotting of GST fusion protein
T2 construct: As MG1; not shown: glutathione-S-transferase of vector pGEX-4T-3 (Amersham Biosciences)
T2 sequence: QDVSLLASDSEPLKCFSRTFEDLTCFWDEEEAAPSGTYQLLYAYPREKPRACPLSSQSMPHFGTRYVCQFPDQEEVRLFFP
Protocol: as §1, §2

[3] = biological target: T3, GST fusion protein containing human Mpl MG8 (Gln26 to Pro217) (human, UniProt P40238 26-217); assay: Western blotting of GST fusion protein
T3 construct: As MG1; not shown: glutathione-S-transferase of vector pGEX-4T-3 (Amersham Biosciences)
T3 sequence: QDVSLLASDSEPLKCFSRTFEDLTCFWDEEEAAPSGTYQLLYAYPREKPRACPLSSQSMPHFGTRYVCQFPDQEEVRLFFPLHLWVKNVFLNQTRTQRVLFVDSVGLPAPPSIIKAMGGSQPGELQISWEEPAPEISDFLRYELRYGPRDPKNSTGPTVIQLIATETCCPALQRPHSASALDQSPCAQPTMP
Protocol: as §1, §2

[4] = biological target: T4, MG10 (Gln213 to Ala231)-GST fusion protein (human, also: fused with GST); assay: SPR, Biacore 3000, MG10-GST immobilized on CM5, Bivalent analyte model (constants as for the monovalent antibody), triplicate
T4 construct: As MG1; also called MG10-GST fusion protein; GST fusion protein containing MG10; not shown: glutathione-S-transferase of vector pGEX-4T-3 (Amersham Biosciences)
T4 chain: QPTMPWQDGPKQTSPSREA
Protocol: The Sensor Chip CM5 (Biacore) was placed in Biacore 3000 (Biacore), and MG10-GST fusion protein was immobilized onto the chip by amine-coupling methods. HBS-EP Buffer (Biacore) was used as the running buffer, and the flow rate was 20 μL/min. 5.5 to 175.0 nM of VB22B IgG solution was prepared using HBS-EP Buffer, and injected over each of the chip surfaces for 2 min to obtain the binding region at the respective concentrations. Then, dissociation region for the 2 minutes was measured. VB22B IgG bound to the MG10-GST fusion protein on the sensor chip was removed by injecting 20 mM HCl over the sensor chip for 1 min, and the chip was recovered. Similarly, 4.7 to 150.1 nM of VB22B sc(Fv)2, 5.3 to 168.9 nM of hVB22B q-wz5 sc(Fv)2, and 4.9 to 156.8 nM of hVB22B u2-wz4 sc(Fv)2 were prepared and injected over the chip surfaces onto which MG10-GST fusion protein was immobilized, and the measurement was carried out.
All the antibodies used were bivalent antibodies, and thus the sensorgrams at each concentration were obtained in the presence of both monovalent and bivalent bindings. In this context, the reaction rate constant was determined as that for the monovalent antibody by analysis using the Bivalent analyte model of BIAevaluation ver.3.1 software (Biacore). The above analysis was carried out in triplicates for each antibody. The binding rate constant (ka), dissociation rate constant (kd), and dissociation constant (KD) were determined as those for the monovalent antibody by the procedure described above. The constants are indicated below in Table 1.

binding result [1]: no binding | binding result [2]: no binding | binding result [3]: no binding | Kd [4]: 11.5 nM | koff [4]: 0.0011 s⁻¹ | kon [4]: 96000 M⁻¹ s⁻¹
B1: anti-human Mpl antibody VB22B IgG (antibody, V domains shown)
VH: QVQLQQSGPELVKPGASVKISCKASGYAFTNSWMNWVKQRPGKGLEWIGRIYPGDGETIYNGKFRVKATLTADKSSSTAYMDISSLTSEDSAVYFCARGYDDYSFAYWGQGTLVTVSA
VL: DIVMTQAAPSIPVTPGESVSISCRSSKSLLHSNGNTYLYWFLQRPGQSPQLLIYRMSNLASGVPDRFSGSGSGTAFTLRISRVEAEDVGVYYCMQHIEYPFTFGSGTKLEIK
notes: also called murine antibody VB22B
